The results in this text go back to US20190367631A1.

Sequences and labels used below:
B1: H1H27729P-N297Q (antibody, human IgG1, V domains shown)
VH: QVQLVESGGGLVKPGGSLRLSCAASGFIFSDYYMSWIRQAPGKGLEWVSYISSSGTTIYGDSVKGRFTMSRDNAKNSLYLQMNSLRAEDTAVYYCARNYALFDYWGQGTLVTVSS
VL: DIQMTQSPSSLSASVGDRVTITCQASQDISKYLNWYQQKPGKAPKLLIYYTSNLETGVPSRFSGSGSGTDFTFTISSLQPEDIATYYCHQSDYLPFTFGPGTKVDIKR
B2: H1H27734P-N297Q (antibody, human IgG1, V domains shown)
VH: EVQLVESRGGLVQPGGSLRLSCAASGFTFSSYAMSWVRQAPGKGLEWVSAISGSGGSTFYADSVKGRFTISRDNSKNTVYLQMNSLRAEDTAVYYCAKALVLRFLEWLGDYWGQGTLVTVSS
VL: DIQMTQSPSTLSASVGDRVTITCRASQSISSWLAWFQQKPGKAPKLLIYKASSLESGVPSRFSGSGSGTEFTLTISSLQPDDFATYYCQQYKSYWTFGQGTKVEIKR
B3: H1H21227N-N297Q (antibody, human IgG1, V domains shown)
VH: QVQLVQSGAEVKKPGASVKVSCKVSGYTLTELSIHWVRQVPGKGLEWMGGFDPEEGETIFAQEFRDRVTLTEDTSPDTAYMELSSLKSEDAAVYYCTTPRYCNNGICYDYWGQGTLVTVSS
VL: DIQMTQSPSSLSASVGDRVTITCRASQSISNYLNWYQQKPGKAPKLLIYTASSLQSGVPSRFSGSGSGTDFTLTISSLQTEDFATYYCQQSYSNFPITFGQGTRLEIKR
B4: H1H27747P-N297Q (antibody, human IgG1, V domains shown)
VH: QVQLVESGGAVVQPGRSLRLSCAASGFTFSYYGMHWVRQAPGKGLEWVAVISYDGSKKYYADSVKGRFTISRDNSKNTLYLQMNSLRAEDTAVYYCAKDLTVDFYYGMDVWGQGTTVTVSS
VL: DIQMTQSPSSVSASVGDRVTITCRASQGISSWLAWYQQKPGKAPKLLIYATSSLQSGAPSRFSGSGSGTDFTLTISSLQPEDFATYFCQQANSFPYTFGQGTKLEIKR
B5: H1H27754P-N297Q (antibody, human IgG1, V domains shown)
VH: EVQLVESGGGLVQPGGSLRLSCAASGFTFRTYAMTWVRQAPGKGLDWVSAITGDGGNTYYADSVKGRFTISRDNSKNTLYLQMNSLRAEDTAIYYCAKDQRFSFALYYFDYWGQGTLVTVSS
VL: B4 VL with K42N, T51A, S52F, A58V, F87Y, S93N, Y96W, L104V
B6: H1H27739P-N297Q (antibody, human IgG1, V domains shown)
VH: EVQLVESGGGLVQPGGSLRLSCTASGFTFSSYAMSWVRQAPGKGLEWVSAISGTGSSTYFTDSVKGRFAISRDNSKNTLYLQMNSLRAEDTAVYYCAKDGEWLSTVTLFDYWGQGTLVTVSS
VL: EIVMTQSPATLSVSPGERATLSCRASQSVSSNLAWYQQKPGQAPRLLIYGASTRATGIPARFSGSGSGTDFTLTISSLQSEDFALYYCQQYFIWPPHPTFGPGTKVDIKR
B7: H1H21234N-N297Q (antibody, human IgG1, V domains shown)
VH: QVQLQESGPGLVKPSETLSLTCTVTGGSISRNYWSWIRQPPGKGLEWIGYIYYSGSIDYNPSLKSRVTISVDTSKNQFSLKLSSMTAADTAVYYCARDRWNWKYGMDVWGQGTTVIVSS
VL: EIVLTQSPGTLSLSPGERATLSCRASQTVRNNYLAWYHQKPGQAPRLLIYGASSRATGIPDRFSGSGSGTDFTLTISRLEPEDFTVYYCHQYGNSPWTFGQGTKMEIKR
B8: H1H21227N (antibody, human IgG1, V domains shown)
VH: B3 VH
VL: B3 VL
B9: H1H21227N-N297D (antibody, human IgG1, V domains shown)
VH: B3 VH
VL: B3 VL
B10: H2aM25700N (antibody, mouse IgG2a, V domains shown)
VH: QVQLVQSGSEVKKPGASVKVSCKVSGYTLTELSIHWVRQAPGKGLEWMGGFDPEDGETIYAQKFRGRVTMTEDISPDTAYMELSSLRSEDTAVYYCATPRYCNNGICYDYWGQGTLVTVSS
VL: B3 VL with V15I, N31S, K45M, T50A, N94T, F95P
B11: H1H21231N-N297Q (antibody, human IgG1, V domains shown)
VH: EVQLVESGGGLVQPGGSLRLSCAASGFTFSDHYMDWVRQAPGKGLEWVGRTRNKANSHTTEYTASVTGRFTISRDDSRNSLYLQMNSLKTEDTAVYYCVRAGIIGTLFDYWGQGTLVTVSS
VL: B3 VL with S7F, N31S, Y32F, Y36F, L46F, T50A, T80P, N94S, F95P
B12: H1H21231N (antibody, human IgG1, V domains shown)
VH: B11 VH
VL: B3 VL with S7F, N31S, Y32F, Y36F, L46F, T50A, T80P, N94S, F95P
B13: H2aM25690N (antibody, mouse IgG2a, V domains shown)
VH: EVQLLESGGGLVQPGGSLRLSCAASGFTFSNYAMTWVRQAPGTGLEWVSAISGRGSNTYYTDSVKGRFTISRDNSKNMLYLQMNSLRAEDTASYYCAKDRFTTVGNWFDPWGQGTLVTVSS
VL: B3 VL with N31S, T50A, S56N, T80P, N94S, F95L, E106D
B14: H2aM25695N (antibody, mouse IgG2a, V domains shown)
VH: B7 VH with D58N, T73M, S83N, M85V
VL: B7 VL with N32S, T85A, H90Q, N94S, P96Y
B15: H1H21234N (antibody, human IgG1, V domains shown)
VH: B7 VH
VL: B7 VL
B16: H2aM21229N (antibody, mouse IgG2a, V domains shown)
VH: EVQLVESGGGLVKPGGSLRLSCAASGFTFSRYSMNWVRQAPGKGLEWVSSISSSSSYIYYGDTVKGRFTISRDNAKKSLYLQMNSLRAEDTAVYYCVRDRGQLVLYFDYWGQGTLVTVSS
VL: DIQMTQSPASLSTSIRDRVTITCRASLSISSFLNWFQQRPGKAPKLLIYVASNLQSGVPSRFSDSGSGTDFTLTISSLQPEDFATYYCQQNYSTPPITFGQGTRLEIK

Residue numbers refer to the chain shown, from its start. Names and notes keep the numbering of the source.

endogenously expressed human MSR1 on PMA-treated THP-1 cells (human), sequence (P21757 whole entry): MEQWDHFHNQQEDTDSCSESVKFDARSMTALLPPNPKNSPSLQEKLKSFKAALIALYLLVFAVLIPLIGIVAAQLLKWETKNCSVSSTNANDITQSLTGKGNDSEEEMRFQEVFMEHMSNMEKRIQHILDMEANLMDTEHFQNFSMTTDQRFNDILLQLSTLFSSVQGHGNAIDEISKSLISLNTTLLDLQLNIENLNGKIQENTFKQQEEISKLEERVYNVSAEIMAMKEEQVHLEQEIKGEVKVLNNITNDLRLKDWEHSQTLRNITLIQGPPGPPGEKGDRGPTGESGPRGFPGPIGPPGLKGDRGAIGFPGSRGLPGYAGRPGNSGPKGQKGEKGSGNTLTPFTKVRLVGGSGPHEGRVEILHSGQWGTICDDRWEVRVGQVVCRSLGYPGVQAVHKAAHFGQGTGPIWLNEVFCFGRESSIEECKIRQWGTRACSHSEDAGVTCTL

The first assay addresses endogenously expressed human MSR1 on PMA-treated THP-1 cells (human) (UniProt P21757). Briefly: cell-based or functional assay.
Molecule B1 had a % Internalization of 57% and a Total Internalized RFU of 3.76e+06 RFU.
Molecule B2 had a Total Internalized RFU of 737000 RFU.
Take B3: the % Internalization worked out at 78.5% and the Total Internalized RFU came to 3.23e+06 RFU.
For B4, in that order: 58.2% and 3.44e+06 RFU.
In turn, B5 displayed a % Internalization of 90% and a Total Internalized RFU of 6.45e+06 RFU.
For B6, in that order: 71.6% and 4.02e+06 RFU.
B7: the % Internalization worked out at 13.3% and the Total Internalized RFU worked out at 723000 RFU.

The target is the same in a further assay. Briefly: ECL cell binding, PMA-treated THP-1 cells, 11 nM.
For B1, the ratio of binding signal (RLU) to isotype control came out at 8 fold.
As for B2, the ratio of binding signal (RLU) to isotype control amounted to 21 fold.
On the same count and under the same terms, under B3 stands 5 fold; under B8, 7 fold; under B9, 6 fold.
Still for that read-out and setting: under B10 stands 3 fold; under B11, 45 fold; under B12, 42 fold.
In the case of B13, the ratio of binding signal (RLU) to isotype control amounted to 25 fold.
For B4, the ratio of binding signal (RLU) to isotype control is 13 fold.
As to B5, the ratio of binding signal (RLU) to isotype control was determined as 66 fold.
For the molecule B6, the ratio of binding signal (RLU) to isotype control was 9 fold.
Turning to B7, the ratio of binding signal (RLU) to isotype control is 25 fold.
Consider B14, for which the ratio of binding signal (RLU) to isotype control was 8 fold.
Still for that read-out and setting: the figure for B15 is 18 fold; for B16 it is 56 fold.

A further assay has the same target. Briefly: confocal imaging, differentiated THP-1 cells, Alexa 488 secondary.
Regarding B1, the Total Binding at 4° C. (RFU) amounted to 1.93e+06 RFU and the Total Binding at 37° C. (RFU) is 6.61e+06 RFU.
Molecule B2 registered a Total Binding at 4° C. (RFU) of 483000 RFU and a Total Binding at 37° C. (RFU) of 1.15e+06 RFU.
The like results for B3 were, in that order, 1.8e+06 RFU and 4.11e+06 RFU.
B4 displayed a Total Binding at 4° C. (RFU) of 2.52e+06 RFU and a Total Binding at 37° C. (RFU) of 5.92e+06 RFU.
For B5, the Total Binding at 4° C. (RFU) came out at 3.08e+06 RFU and the Total Binding at 37° C. (RFU) was 7.16e+06 RFU.
The like results for B6 were, in that order, 3.7e+06 RFU and 5.61e+06 RFU.
B7 gave a Total Binding at 4° C. (RFU) of 1.95e+06 RFU and a Total Binding at 37° C. (RFU) of 5.45e+06 RFU.
